What all share (experiment): SDS-PAGE without boiling
Data set [1] addresses FITC-labeled cholera toxin B (sortase-labeled GGG-CTB) (UniProt P01556).
Data set [2] concerns the target cholera toxin B with an N-terminal triglycine extension (UniProt P01556).
The data set “SDS-PAGE without boiling” deals with the molecule itself.

As a reminder, the stoichiometry N is a count of units in the complex or per binding partner. In data set [1], “FITC-labeled cholera toxin B (sortase-labeled GGG-CTB) (from UniProt P01556 22-124) (natural protein)” gave a stoichiometry N of 5.
On to “cholera toxin B with an N-terminal triglycine extension (from UniProt P01556 22-124) (natural protein)”, for which the stoichiometry N in data set [2] was 5.

B1: cholera toxin B-subunit (natural protein)
chain: TPQNITDLCAEYHNTQIYTLNDKIFSYTESLAGKREMAIITFKNGAIFQVEVPGSQHIDSQKKAIERMKDTLRIAYLTEAKVEKLCVWNNKTPHAIAAISMAN
notes: also called B5; B5 pentamer
As for B1, the “stoichiometry N” value in the data set “SDS-PAGE without boiling” amounted to 5.

The values above are taken from paper PMC11054894, “Sortase-Modified Cholera Toxoids Show Specific Golgi Localization” (Toxins, 2024).
